Assay results published in US12083109B2, “Neurokinin antagonists and uses thereof” (California Institute of Technology, priority 2017, dated 2024).
Entries after “also recorded” stand apart in the source; their conditions may differ.

System: Tac2
Test: Tone fear test, Tac2 shRNA knockdown
Assay type: in vivo, mouse
Details: SIS mice
Text: Small hairpin RNA (shRNA) for the mouse Tac2 gene (NM_009312.2) were designed using the online designing tool siDirect 2.0 (http://sidirect2.mai.jp/) (Naito et al., 2009; incorporated by reference in its entirety).
8-16 week old mice were anesthetized with isoflurane and mounted in a stereotaxic apparatus (Kopf Instruments). Anesthesia was maintained throughout surgery at 1-1.5% isoflurane. The skull was exposed and small burr holes produced dorsal to each injection site using a stereotaxic mounted drill. Virus was backfilled into pulled fine glass capillaries (˜50 μm diameter at tip) and pressure injections of 300 nl were made bilaterally into either the dBNSTa (AP +0.25, ML ±0.85, DV −4.1), DMH (AP −1.3, ML±0.35, DV −5.6), or CeA (AP −1.4, ML ±2.6, DV −4.73) at a rate of 30nl per minute using a nanoliter injector (Nanoliter 2000, World Precision Instruments) controlled by an ultra microsyringe pump (Micro4, World Precision Instruments). Capillaries remained in place for 5 minutes following injections to allow for full diffusion of virus and to reduce backflow up the injection tract. Skin above the skull was then drawn together and sealed with GLUture (Zoetis). For bilateral cannula implantations, single or double guide cannulas (custom, Plastics One) aimed 0.5 mm above each region were implanted and held in place with dental cement (Parkell). Compatible dummy cannulas with a 0.5 mm protrusion at the tip were inserted to prevent cannula clogging. Directly following surgery, mice were given a subcutaneous injection of ketoprofen (2 mg/kg) and supplied with drinking water containing 400 mg/L sulphamethoxazole and 200 mg/L ibuprofen and monitored for 7 days. Dummies were replaced every 2-3 days to keep cannula tracts clean. All injections were subsequently verified histologically.
The protocol for tone trace fear conditioning was performed as previously described (Cushman et al., 2014; incorporated by reference in its entirety) using fear conditioning boxes previously described in detail (Haubensak et al., 2010; Kunwar et al., 2015; incorporated by reference in their entirety). Briefly, mice were transported in squads of four on a white cart to a novel behavioral testing room containing 4 sound-attenuating fear-conditioning chambers (Med Associates). This “training context” was comprised of flat grid flooring (wired to a shock generator and scrambler for footshock delivery, Med Associates), houselights, and the presence of an internal fan for background noise. Chambers were sprayed with 70% Simple Green solution on the underlying chamber pan to generate a unique contextual scent and chambers were cleaned with 70% EtOH between squads. […]

B1: shRNA-1: small hairpin RNA for mouse Tac2 gene (SEQ ID NO: 9, 10), expressed from AAV5-H1-shRNA-CMV-zsGreen (nucleic acid)
chain 1: CCGACGTGGTTGAAGAGAACACCGCTTCCTGTCACGGTGTTCTCTTCAACCACGTCTTTTTT
chain 2: AAAAAAGACGTGGTTGAAGAGAACACCGTGACAGGAAGCGGTGTTCTCTTCAACCACGTCGG
freezing to conditioned tone (AAV shRNA in CeA): blocked | acute (during) freezing to conditioned tone (AAV shRNA in dBNSTa): had no effect | persistent (post) freezing to conditioned tone (AAV shRNA in dBNSTa): blocked; also recorded: strongly reduced

B2: shRNA-2: small hairpin RNA for mouse Tac2 gene (SEQ ID NO: 11, 12), expressed from AAV5-H1-shRNA-CMV-zsGreen (nucleic acid)
chain 1: CCGCCTCAACCCCATAGCAATTAGCTTCCTGTCACTAATTGCTATGGGGTTGAGGCTTTTTT
chain 2: AAAAAAGCCTCAACCCCATAGCAATTAGTGACAGGAAGCTAATTGCTATGGGGTTGAGGCGG
acute (during) freezing to conditioned tone (AAV shRNA in dBNSTa): additionally reduced; also recorded: significantly reduced
